Laboratory results reported in US20220403048A1, “BINDING MOLECULES TO ARGINASE II [ARG2]” (Cancer Research Technology Limited, priority 2019, published 2022).
Changes are numbered by the printed parent chain. Values belong to the molecule of their own block, whether it stands above or below them.

How the values were obtained:
ARG2 [1] = target: T1, ARG2 (Homo sapiens, UniProt P78540); experiment: T cell proliferation assay (BrdU, 96 hours) with exogenous ARG2, improved variant IgGs; format: cell-based; set-up: human ARG2 (aa23-354); His10 (C); made in house; host or cells: E. coli BL21 (DE3); settings: In Presence of rhARG2; hIgG1; top conc 2 μM; n=2
T1 sequence (P78540 23-354): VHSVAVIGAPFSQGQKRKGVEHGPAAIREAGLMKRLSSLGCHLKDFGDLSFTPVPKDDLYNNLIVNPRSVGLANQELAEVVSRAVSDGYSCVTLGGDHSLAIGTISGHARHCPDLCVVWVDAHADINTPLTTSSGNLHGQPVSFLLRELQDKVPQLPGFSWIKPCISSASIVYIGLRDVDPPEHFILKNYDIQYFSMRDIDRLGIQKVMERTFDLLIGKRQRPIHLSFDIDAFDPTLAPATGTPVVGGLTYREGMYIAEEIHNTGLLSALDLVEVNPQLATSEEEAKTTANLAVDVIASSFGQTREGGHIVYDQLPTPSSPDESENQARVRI
Protocol: This assay served to provide evidence of improved functional efficacy for each affinity-matured antibody in comparison to the parent IgG, C0020187 (FIG. 12).
Lead optimisation clones were tested to an endpoint treatment time of 96 hours and the BrdU Cell Proliferation Kit (Roche, France; Cat: 11647229001) was used according to the manufacturer's instructions. R347 was used as the irrelevant control. All clones tested n=2.
Leukocyte cones underwent Ficoll Plaque (GE, Sweden; Cat: 17-1440-02) gradient separation, PBMC's were extracted and pan T cell population isolated by negative selection using the Human T Cell Enrichment Kit (Stemcell Technologies, France; Cat: 19051) according to the manufacturer's instructions.
40000 cells/well were seeded in complete growth media (RMPI 1640, 5% Human Serum Albumin) into a 96 well clear TC treated microplate (Greiner-Bio One, Germany; Cat: 655180). T cells were activated by the addition of ImmunoCult CD3/CD28 (Stemcell Technologies, France; Cat: 10971) at a dilution of 1:40 directly into wells and the plate incubated 37° C., 5% CO2 for 45 minutes. […]
Calculated data was expressed as % of control (Equation 3) and graphical plots were constructed using a four parameter fit and EC50's determined using model 205 in XLFit (IDBS, UK). […]

ARG2 [2] = target: T1, ARG2; experiment: Dynamic light scattering of ARG2-Fab complex sizes; set-up: human ARG2 (aa23-354); His10 (C); made in house; host or cells: E. coli BL21 (DE3); settings: FIG. 23B
Protocol: ARG2 and Fabs were analysed at concentrations of 8 μM (referring to monomers) in buffer containing 25 mM tris at pH 7.4 and 150 mM NaCl (FIG. 23). ARG2-Fab complexes were formed by mixing both ARG2 and Fabs at concentrations of 8 μM (referring to monomers) and incubation on ice for 1 h. Dynamic light scattering (DLS) was performed on a Zetasizer Ultra (Malvern Panalytical) using multiangle DLS. Data was collected in a 3×3 mm cuvette (Hellma Analytics) using a sample volume of 30 μl. Volume weighted size-distributions were corrected for refractive index, viscosity, and background scatter of the buffer by the instrument software.

EC50 (ARG2 [1]): 157 nM
Maximum % Proliferation (ARG2 [1]): 90%
B1: C0021158: anti-ARG2 antibody, second generation lead, VH SEQ ID NO: 272, VL SEQ ID NO: 277 (antibody, listed as Homo sapiens, V domains shown)
VH: EVQLLESGGGLVQPGGSLRLSCAASGFTFRYEVAAWVRQAPGKGLEWVSAISGPIPKGYYADSVKGRFTISRDNSKNTLYLQMNSLRAEDTAVYYCARLRADLGLYMDLWGRGTLVTVPS
VL: QSVLTQPPSVSAAPGQKVTISCSGSSSNIGNHYVSWYQQLPGTAPKLLIYDNSERTAGVPDRFSGSKSGTSATLGITGLQTGDEADYYCGTWDELTSNLVFGGGTKLTVL
modifications: C0021158

B2: C0021139: anti-ARG2 antibody, VH SEQ ID NO: 212, VL SEQ ID NO: 217 (antibody, listed as Homo sapiens, V domains shown)
VH: EVQLLESGGGLVQPGGSLRLSCAASGFTFQYDYQVWVRQAPGKGLEWVSAISGSGGSTYYADSVKGRFTISRDNSKNTLYLQMNSLRAEDTAVYYCARLRADLGLYMDLWGRGTLVTVSS
VL: B1 VL with A57S, V59I
modifications: C0021139
increase in average hydrodynamic radius (Rh) of ARG2-Fab complexes in comparison with ARG2-C0020187 Fab complexes (ARG2 [2]): 1.5 nm
